From patent publication US20220332804A1 (CSL INNOVATION, published 2022)

Experiments:
Test in all cases: SPR, mAb captured, C2 mutant analyte;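 further: Anti-C2 mAbs captured on goat anti-human IgG Biacore CM5 chips, alanine or serine C2 surface mutants flowed over at 37 °C, double-referenced sensorgrams fitted to a 1:1 binding model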
human C2 V455A = target: T1, human C2 V455A (human, UniProt P06681 21-752)
T1 sequence: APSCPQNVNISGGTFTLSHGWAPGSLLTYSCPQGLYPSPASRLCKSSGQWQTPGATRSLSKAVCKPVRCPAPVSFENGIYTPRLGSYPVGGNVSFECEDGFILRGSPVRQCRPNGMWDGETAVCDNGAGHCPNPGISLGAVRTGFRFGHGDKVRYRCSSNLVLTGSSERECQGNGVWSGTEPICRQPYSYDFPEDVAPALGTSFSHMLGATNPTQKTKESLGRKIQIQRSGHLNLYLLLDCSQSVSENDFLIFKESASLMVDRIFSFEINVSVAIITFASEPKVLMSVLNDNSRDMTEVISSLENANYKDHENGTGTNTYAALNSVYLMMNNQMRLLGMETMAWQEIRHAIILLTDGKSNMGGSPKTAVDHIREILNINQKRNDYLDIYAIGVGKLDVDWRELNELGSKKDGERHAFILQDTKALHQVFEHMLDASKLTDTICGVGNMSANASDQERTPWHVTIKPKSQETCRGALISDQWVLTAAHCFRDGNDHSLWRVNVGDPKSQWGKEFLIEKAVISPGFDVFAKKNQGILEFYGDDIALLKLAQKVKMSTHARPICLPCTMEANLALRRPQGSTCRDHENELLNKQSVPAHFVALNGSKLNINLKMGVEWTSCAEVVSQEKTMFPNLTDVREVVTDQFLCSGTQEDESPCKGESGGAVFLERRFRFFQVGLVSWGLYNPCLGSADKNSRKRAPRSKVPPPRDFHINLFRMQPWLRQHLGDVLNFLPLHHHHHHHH

human C2 L620A = target: T2, human C2 L620A (human, UniProt P06681 21-752)
T2 sequence: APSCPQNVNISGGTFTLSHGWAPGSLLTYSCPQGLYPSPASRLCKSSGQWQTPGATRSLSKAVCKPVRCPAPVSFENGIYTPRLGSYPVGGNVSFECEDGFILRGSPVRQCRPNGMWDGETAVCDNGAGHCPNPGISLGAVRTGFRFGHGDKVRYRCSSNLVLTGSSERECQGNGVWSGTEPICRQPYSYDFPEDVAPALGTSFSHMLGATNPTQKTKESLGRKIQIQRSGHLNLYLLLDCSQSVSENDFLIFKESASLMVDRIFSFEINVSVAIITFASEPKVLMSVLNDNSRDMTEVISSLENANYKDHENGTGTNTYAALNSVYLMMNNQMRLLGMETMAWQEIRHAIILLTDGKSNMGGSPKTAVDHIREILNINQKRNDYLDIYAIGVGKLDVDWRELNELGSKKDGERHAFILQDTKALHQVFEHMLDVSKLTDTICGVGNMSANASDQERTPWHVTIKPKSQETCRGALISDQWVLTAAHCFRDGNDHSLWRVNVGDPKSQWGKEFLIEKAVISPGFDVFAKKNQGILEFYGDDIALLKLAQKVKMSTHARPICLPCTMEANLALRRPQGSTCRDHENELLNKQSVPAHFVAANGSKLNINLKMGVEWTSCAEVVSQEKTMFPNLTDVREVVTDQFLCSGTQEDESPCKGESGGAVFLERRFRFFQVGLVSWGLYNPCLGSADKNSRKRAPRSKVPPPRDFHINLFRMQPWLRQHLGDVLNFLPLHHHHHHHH

human C2 S428A = target: T3, human C2 S428A (human, UniProt P06681 21-752)
T3 sequence: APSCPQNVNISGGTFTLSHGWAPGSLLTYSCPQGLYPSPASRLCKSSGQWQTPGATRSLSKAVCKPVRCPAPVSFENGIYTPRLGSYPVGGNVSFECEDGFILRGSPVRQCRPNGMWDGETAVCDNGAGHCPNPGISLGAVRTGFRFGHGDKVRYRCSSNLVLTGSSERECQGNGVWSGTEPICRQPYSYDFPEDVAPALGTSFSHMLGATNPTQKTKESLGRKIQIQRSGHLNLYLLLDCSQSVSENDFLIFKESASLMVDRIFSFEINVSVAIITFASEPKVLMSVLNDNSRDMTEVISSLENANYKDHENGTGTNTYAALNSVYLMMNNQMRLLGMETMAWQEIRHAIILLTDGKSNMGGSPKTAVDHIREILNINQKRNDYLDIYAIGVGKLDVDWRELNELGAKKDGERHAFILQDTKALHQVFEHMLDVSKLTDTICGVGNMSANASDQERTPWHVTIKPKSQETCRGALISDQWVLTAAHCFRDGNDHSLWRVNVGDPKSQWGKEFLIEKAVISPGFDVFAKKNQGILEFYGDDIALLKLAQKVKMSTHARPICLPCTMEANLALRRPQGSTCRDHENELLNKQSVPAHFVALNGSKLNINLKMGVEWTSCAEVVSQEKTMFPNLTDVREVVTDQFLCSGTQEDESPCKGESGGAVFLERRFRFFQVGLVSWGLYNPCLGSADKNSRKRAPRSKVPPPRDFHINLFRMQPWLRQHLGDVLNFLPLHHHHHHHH

human C2 K443A = target: T4, human C2 K443A (human, UniProt P06681 21-752)
T4 sequence: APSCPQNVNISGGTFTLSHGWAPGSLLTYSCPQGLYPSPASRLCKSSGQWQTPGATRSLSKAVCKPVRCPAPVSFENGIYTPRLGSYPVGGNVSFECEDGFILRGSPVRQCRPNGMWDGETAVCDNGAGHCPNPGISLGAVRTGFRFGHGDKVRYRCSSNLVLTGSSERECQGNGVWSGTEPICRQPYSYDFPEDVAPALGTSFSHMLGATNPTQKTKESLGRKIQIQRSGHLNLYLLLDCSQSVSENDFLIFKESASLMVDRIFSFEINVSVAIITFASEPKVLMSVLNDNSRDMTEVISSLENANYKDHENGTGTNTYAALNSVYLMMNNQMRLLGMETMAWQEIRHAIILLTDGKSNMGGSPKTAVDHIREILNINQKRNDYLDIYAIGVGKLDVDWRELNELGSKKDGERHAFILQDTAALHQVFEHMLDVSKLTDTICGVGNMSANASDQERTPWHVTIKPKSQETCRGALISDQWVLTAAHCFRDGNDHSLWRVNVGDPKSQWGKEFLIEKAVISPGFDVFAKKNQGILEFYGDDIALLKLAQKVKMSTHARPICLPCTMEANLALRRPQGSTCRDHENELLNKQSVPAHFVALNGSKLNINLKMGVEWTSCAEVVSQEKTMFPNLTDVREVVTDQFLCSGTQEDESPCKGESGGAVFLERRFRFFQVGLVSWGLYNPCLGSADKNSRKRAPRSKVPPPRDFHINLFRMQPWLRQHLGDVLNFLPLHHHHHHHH

B1: RF16-214 (antibody, V domains shown)
VH: EVQLLESGGGLVQPGGSLRLSCAASGFTFSWYQMMWVRQAPGKGLEWVSRIYPSGGGTAYADSVKGRFTISRDNSKNTLYLQMNSLRAEDTAVYYCARDAGYGDNWGQGTLVTVSS
VL: QSALTQPPSVSVSPGQTASITCSGDKLGEKYASWYQQKAGQSPVMVIYQDRKRPSGIPERFSGSNSGNTATLTISGTQAMDEADYYCQAWDTRAVVFGGGTKLTVLG
Binder B1 has a Kd (human C2 V455A) of 9.8 nM, a Kd (human C2 L620A) of 30.8 nM and a Kd (human C2 S428A) of 58.6 nM. B1: no binding (human C2 K443A).
